Measurements as given in the DeepSol protein solubility set.

Experiment: soluble on expression in E. coli; label from the status in PepcDB or PDB records
With “MSLAIIEEARSGQITDEMKEISKLEGIPVEKVRNRISECKIILIRNAKYPSKKLVPIGKGLTTKVNINIGTSDEVVNLQMELEKVKVANRWGDTLMDLSTGGDLDDIRREIIRASELPVGTVPVYQVFIESFKKKSGGAYFTEDELLSTVEKHLKDGVAFMTIHAGITKELAIRALKSNRIIPIVSRGGDMIAGWMIHNNSENPYRKHWGYLLEMFKEYDAVISLGDALRPGATGDAHDEFQVGELLETARLVKSALKEGVQVMVEGPGHVPLNEIAWDVKLMKKLTGGVPYYVLGPLPIDVGAPYDHIASAIGAAISSAAGADLLCYLTPAEHLGLPTVKQVEEGAIAYRIAAHAGDVVKLGRRVRKWDDEVSYYRGKLEWDNMISRLIDPQRAYQVYTQFGIPKVKACTMCGGYCPMMWAMDQVRKIGSSSSLEGHHHHHH” the “soluble on expression in E. coli” value was “soluble”.
For “YLGEVYTAKTDDGVKIKLLRYHPPGEGVNDGVQPVVLFSGLLCNMNEYLTHTPPELKDLYKTQLPSELADWAVGDERIQQDPMLYYSLAYYLWKQGYDVWLVNYRGTGVGELKSGVGSARTSLDTWAIYDTKAAITKVYEVTGKHPVIGGHSTGGLVSYVYLQGAKFKWTFACLFKKPWCKKVVSDDDLVRERNGLTEGEETVVGVIALDPAMIPPLPKLTDLKLMWLLLDTPLYIDIRGIMNLIAKNDRLWCATTHTIDEVFELIFEMNEEYGQYSELIRDLTFTNPGNMNDELNDFLVRYVADSLYTPTLAHYNDFGTHRTAREYFENGGRSYLIVPPEPNPGKDGYYYYILNMQKVRVPFITLLSEYDALVEAEQIIRDLMEAKTPHQFDEYYIIEGTAHLDLPFGLKAPSEVFPKVGAWLEK”, the “soluble on expression in E. coli” value was “not soluble”.
With “MGCLATPVRTEVLKALEYSQRICALRSCSRFIRSPRAMFKRQHTDADVLEHPVSASAPATWSLIGEHTDHAGGVVLMSVAQLRTHVEATTRADDIVSVDYYIADPEMPVQQSAISLSDVFEWQNSLSGDHEPLESP” the “soluble on expression in E. coli” value was “not soluble”.
In the case of “HTDPGDVVIEELFNRIPETSVWNENERVLSNANHLVSTALWRNEQSFRVESELGERPRTLVRGPVLRDDGSYICLEATDQETGEPLEVHVPYFTERPPSNAIKQLSEQVLRLRLLRGIKNQRQAKAYLRFIFPIDLVKDPKKRKMIRVRLDERDMWVLSRFFLYPRMQSNLHILGDVLLSHSSTHKSLVHHARLQLTLQLIRLAASLQHYGLVHADFQVRNILLDQRGGVFLTGFEHLVRDGASAVSPIGRGFAPPETTAERMLPYRQHHPTLMTFPFDTWTLGLAIYWIWCADLPNTEDAELGGIEWIYRRCKNIPQPVRALLEGFLRYSKEDRLLPLQAMETSEYEQLRTELSAVLPLYQTDGEPA”, the “soluble on expression in E. coli” value is reported as “soluble”.
With “GPGSMSAIVPAAHAREDMGGCAPCRVSSFHPCEGDGAEEKECNASSGADAAAAAEPLDPLRCFSAFDVLRDVLAACTCAPALSRSTEKGADSPSLLPGAPLPSAWRTEQTREALRTLVDLVAADVGVSSARHGQGEAPEEAEIARSRLSVDALLLHLTTEGPNLRAALRRRRRQLLPMPPRDDATTQSEREACDEAHAACEEDEALAALTRCAASVALINRDLGSSARKGRKAVQTAASCVLQTRTALSLLRTSSLVHQPLRAGAGHAAASRSAIAAADVSAYWCSTGCMGLDQALGGGGFRSGWVTEVYGEAGAGKTQLGLQCLLQQAATDVCHAAVALALASGADFTSLAHMATTTGMCGSRSPVVKCMEVFDRDAVEAARCAVVYLVSEDVPTSRLGPLAAAAVGRAVRAVRLHPLVNQLPSGVVKTVWGCVERTCTVPTVLSRLQIRHVASVAEVLRLLEPLPHPQLAQVSRTSSPPNVIPNRAQRPRNSNLVEAVRVLAGTHGRAVVVLDSVAAAVVAGQWDMQGVAQADATVTALSLRLRQAAMTHNWCIVVTNQVRAIPTTARQRQCALAPIKRARSPTTSSTASAPSVTRTVVPALGFSWASAAHCRVFLRKSLSHGVRQLVLRHAPSHPPAQASYLITEHGIEDA” the “soluble on expression in E. coli” value was “not soluble”.
In the case of “MTAPSQVLKIRRPDDWHVHLRDGDMLKTVVPYTSEIYGRAIVMPNLASPITTVDAAIAYRQRILDAVPAGHDFTPLMTCYLTDSLDADELERGFHEGVFTAAKLYPANATTNSSHGVTSVDAIMPVLERMEKLGIPLLVHGEVTHADVDIFDREARFIDTVMEPLRQRLTALKVVFEHITTKDAAQYVRDGNDYLAATITPQHLMFNRNDMLVGGIRPHLYCLPILKRNIHQQALRELVASGFTRAFLGTDSAPHSRHRKETSCGCAGCFNAPSALGSYAAVFEEMNALAHFEAFCSLNGPQFYGLPMNTGWVELVRDEQQIPGNIALADDSLVPFLAGETVRWSVKK”, the “soluble on expression in E. coli” value is reported as “not soluble”.
With “MVSIMNKNELITEILKNEVVKALGCTEVGLIGYTVAKAKPEDLYSIKEIKLILDKGTFKNAFSVGVPNTNKFGILPAVVGGLLGREENKLEVFKDIKYDEKLEEFIENKLKIEVIDSDVYCKVIIKANKVYEAETKGSHSGKSLSDDLKNAYKSLTLKDFIDYIEDIPEEVIKIIKETIETNKNLSTPEVPEDFISLDLKDEILNHMLKKTVSAVYNRMIGINKPAMAIAGSGNMGLTATLPIIAYDEIKGHDEEKLTKSITLSALTTIYSAYHSSYISAMCGCVNRGGIGAVSGLSYYIFGFDRIEESIKSFTANLPGIVCDGGKIGCALKIASGVFAIYLSLFSKVPYTNGIVGKDFKECIENIGKIGKAMKPVDDEIIEILKNKK” the “soluble on expression in E. coli” value was “soluble”.
With “MNELVSAFHIERANGKVNGDVVAVEPAKTVNQDAADDEVEIKLNVDNYQMLRSDSQGSLNSHGRSNSRLGRLFRSKHEMKKRETRADENRGEIEIQIDFDDLVNQLKIALIRCRDLMTFDKKDQCNPYVSVKLVALDGNKEVFKKKTPTAKNTRHPHFDNHVEIDINPSDLLNHKVVINVKDDTNYGTFVAKPVLGCLEIRLDSLMNRQLSQRWIPLSVERK” the “soluble on expression in E. coli” value was “not soluble”.
With “MFHGIPATPGIGAPGNKPELYEEVKLYKNAREREKYDNMAELFAVVKTMQALEKAYIKDCVSPSEYTAACSRLLVQYKAAFRQVQGSEISSIDEFCRKFRLDCPLAMERIKEDRPITIKDDKGNLNRCIADVVSLFITVMDKLRLEIRAMDEIQPDLRELMETMHRMSHLPPDFEGRQTVSQWLQTLSGMSASDELDDSQVRQMLFDLESAYNAFNRFLHALEHHHHHH” the “soluble on expression in E. coli” value was “not soluble”.
For “GPGSMSSSNAQAELGPGGSTHSIELGRLIFQGAESKVYCCSFYGALALCKHRFVKRYRDPSLDERLRTQRTRREARALERCVKKGIRAPRLLGADYINTFLVMSYEAGPTVKEALDIEHAAYMQQVSKGKSTSAQQQQPQTTPSPSALGNAAPSPVTAALLQSIGVVVARLHNANIVHGDLTTSNFICTCDGLEAAAPGADGADALASSSPVLPTAEDIVVLDFGLISEKYSTEERAVDLYVLERAIASTHPYLSSFASDIILEGYRSAADPKKGEEALRRLEAVRARGRKRTMIG”, the “soluble on expression in E. coli” value was “not soluble”.
For “EDFAKSIQDFIENGKTLEDFRKDFDKIVAKHGWQYNGGRNWRSRIIYETNLRSSYQAGRYAQLQELKETMPYWEYVHNDAVTYPRVEHMHWDGLILRHDDPWWKTHFPINAWGCQCTVI”, the “soluble on expression in E. coli” value was “not soluble”.
With “IPGKDVAVTAGRVVFQNHLIELIQYEAQTKTVYKEPILILPAWIMKYYILDLSPHNSLVKWLVKQGHTVFIISWRNPDKEDCDLGMDDYYRLGAMAAIDMVSTILPETKINLMGYCLGGTLAMITASMMGRYEDERLNCLTLLAAQGDFSEAGELMLFVNESQVDFLKSMMWEQGYLDTKQMAGSFQMLRAYDLIWSKMVQDYMHGMRRGMIDLTAWNADATRMPYKMHSEYLEKLFLNNDFAEGRYMVEGKSVAAENIQCPIFAVSTKKDHVAPWQSVYKIHLMTEENVTFVLTGGGHN” the “soluble on expression in E. coli” value was “not soluble”.
For “SNAKIIGYARVSFNAQKDDLERQIQLIKSYAEENGWDIQILKDIGSGLNEKRKNYKKLLKMVMNRKVEKVIIAYPDRLTRFGFETLKEFFKSYGTEIVIINKKHKTPQEELVEDLITIVSHFAGKLYGMHSHKYKKLTKTVKEIVREEDAKEKE”, the “soluble on expression in E. coli” value was “soluble”.
For “MGSDKIHHHHHHMLFDTSPKDNRKDFFDREKEIEKLKGLRAPITLVLGLRRTGKSSIIKIGINELNLPYIYLDLRKFEERNYISYKDFLLELQKEINKLVKRLPSLLKALKNIQGIVIMGNEIKFNWNRKDRLSFANLLESFEQASKDNVIIVLDEAQELVKLRGVNLLPALAYAYDNLKRIKFIMSGSEMGLLYDYLRVEDPESPLFGRAFSTVELKPFSREEAIEFLRRGFQEADIDFKDYEVVYEKIGGIPGWLTYFGFIYLDNKNLDFAINQTLEYAKKLILKEFENFLHGREIARKRYLNIMRTLSKCGKWSDVKRALELEEGIEISDSEIYNYLTQLTKHSWIIKEGEKYCPSEPLISLAFS”, the “soluble on expression in E. coli” value was “not soluble”.
With “SGPMDSRALRQGNRLLGNAEGCAALEITMSGPLLRFNTDAVIAVTGAHIPITLDGESCAMNTALLVRAGSTLALGTIAGAGVRSYLCVRGGLDVPDYLGSKSTFTLGQFGGHGGRALRAGDVLHIARLVDRTAGQKIADEQLDALQDVRQIRVIYGPHAAPEYFTESYIETFFATDWEVHFNSSRTGVRLIGPKPEWVRADGGEAGLHPSNIHDNPYAIGAVDFTGDMPVILGPDGPSLGGFVCPVTIIEADLWQLGQLKAGDKVRFYPVSVEACHAAMNSQGPLPQGPLNTSGSGL” the “soluble on expression in E. coli” value was “not soluble”.
For “MTNHPIQGLMTTAMENLKQMIDVNTIIGDPVETPDGSVILTVSKVGFGFAAGGSEFMLDGQQNGHQGAQADGNGHPFGGGSGGGVSITPIAFLVVNSSGVKLLHLDESTHLYEKILDVAPQAFEKIQAMLKKNKKDGAAGQKADDFDI”, the “soluble on expression in E. coli” value was “not soluble”.
With “MVPHDKDKDNPSELIRGKDVAAFGLWSLPSFDEPRDEPAVAAPQVPAVAEPAPAPPAVEEVELETVKPPTLEEIEAIRQDAYNEGFATGERDGFHAGQLKARQEAEEALKERLQSLERLMTQLLEPIAEQDALIEQGMVNLVNHVARQVIQRELHMDSSHVRQVLREALKLLPMGAANIRIHVNPQDFERVKALRERHEESWRILEDDSLLPGGCRIETEHSRIDATIETRLAQAVKQLFEQQREQATHPLASDIRIDLDAPGDVDAP” the “soluble on expression in E. coli” value was “not soluble”.
For “MARKTKQQALETRQHILDVALRLFSQQGVSATSLAEIANAAGVTRGAIYWHFKNKSDLFSEIWELSESNIGELEIEYQAKFPDDPLSVLREILVHILEATVTEERRRLLMEIIFHKCEFVGEMVVVQQAQRSLCLESYDRIEQTLKHCINAKMLPENLLTRRAAILMRSFISGLMENWLFAPQSFDLKKEARAYVTILLEMYQLCPTLRASTVNGSP”, the “soluble on expression in E. coli” value was “not soluble”.
With “PKISQLVAPFELTQNNNDKAILLIHGLTDSPFSFHDLSQFFYQQGFTVRTLLLPGHGVAPSELLNTDYQAWQQAATFAIDQTLNDYQQVYLGGLSTGGALIFNYLMQQKQVDEKIKGLFMWSPATKAKSDLAWLAQYIDGIPFVDWIDLDADIDFAKYESFPYNAGAQVHALMNLVVGEGANASRQMHDIPLFVVASEHDQTIDTAHTLQLVQQWQLAS” the “soluble on expression in E. coli” value was “not soluble”.
With “MAKPVVIGSRSFRTQSSALDHYKALLHRYQDGQRIADPADHTDLVALIERFDPVLDAVGEPAKGAGQIAHFERRLNTGIGWSTPGFWVVRQDGTETDFSYIDAVKGRPKGRSQDFYNACRQAVALDLVLAKKQAFAQYGDDQGRVECELTGKMVTIDDAHLDHAWPYFSHMVSGFRAARGWSRDIPDGIVSTPADGQTTATFLDSAVTEAFRAFHHDQAVLRVLSREANLQTASSARRPKVARPVRLA” the “soluble on expression in E. coli” value was “not soluble”.
With “MGSDKIHHHHHHVDALEVHRFLKGKIRTALPVEKVDRETLSLLYTPGVADVARACAEDPEKTYVYTSRWNTVAVVSDGSAVLGLGNIGPYGALPVMEGKAFLFKAFADIDAFPICLSESEEEKIISIVKSLEPSFGGINLEDIGAPKCFRILQRLSEEMNIPVFHDDQQGTAVVVSAAFLNALKLTEKKIEEVKVVVNGIGAAGYNIVKFLLDLGVKNVVAVDRKGILNENDPETCLNEYHLEIARITNPERLSGDLETALEGADFFIGVSRGNILKPEWIKKMSRKPVIFALANPVPEIDPELAREAGAFIVATGRSDHPNQVNNLLAFPGIMKGAVEKRSKITKNMLLSAVEAIARSCEPEPERIIPEAFDMKVHLNVYTAVKGSA” the “soluble on expression in E. coli” value was “soluble”.
